The RNAGym collection of RNA variant scans (doi:10.1073/pnas.2313332121)
Fewer inactive variants are shown than the library holds.

B1: TPR 5TU (parent)
chain: GGAUCUUCUCGAUCUAACAAAAAAGACAAAUCUGCCACAAAGCUUGAGAGCAUCUUCGGAUGCAGAGGCGGCAGCCUUCGGUGGCGCGAUAGCGCCAACGUUCUCAACUAUGACACGCAAAACGCGUGCUCCGUUGAAUGGAGUUUAUCAUG

Variants of: B1
Test: polymerase ribozyme fitness, log enrichment relative to wild type (log ratio); higher = more active; in vitro selection for triplet polymerase activity
Procedure, shortened: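 Mutant libraries were PCR-built and transcribed for each subunit of a heterodimeric triplet polymerase ribozyme and selected for one round in triplicate at −7 °C, frozen, before gel excision of extended constructs and streptavidin-bead capture. Input and output libraries were Illumina-sequenced, keeping genotypes with ≥10 input reads and ≥1 read per output. Fitness is a logarithmic ratio of genotype to wild-type enrichment, in base 2, using inverse-variance-weighted replicate averages.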

Variant | polymerase ribozyme fitness (log ratio)
GGAUCUUCUCGAUUUAACAAAUAAGACAAAUCUGCCACAAUGCUUGAGAGCAUCUUCGGAUGCAGAGGCGGCAGCCUUCGGUGGCGCGAUAGCGCCAACGUUCUCAACUAUGACACGCACAACGCGUGCUCCGUUGAAUGGAGUUUAUCAUG | -3.1
GGAUCUUCUCGAUUUAACAAAAUAGACAAAACUGCCACAAAGCUUGCGAGCAUCUUCGGAUGCAGAGGCGGCAGCCUUCGGUGGCGCGAUACCGCGAACGUUCUCAACUAUGACACGCAAAACGCGUGCUACGUUGAAUGGAGUUUAUCAUG | ≤ -4.2
GGAUCUUCUCGAUGUAACAAAAAAGACAAAUCUGCCACAAAGCUUGAGAGCAUCUUCGGAUGCAGAGGCGGCAGCCUUCGGUGGCGCUAUAGCGCCAACGUACUCAACUAUGACACGCAAAACGCGUGCUCCGUUGAAUGGAGUUUAUCAUG | ≤ -4.2
GGAUCUUCUCGAUGUAACAAAAAAGACAAAUCUGCCACAAAGCUUGAGAGCAUCAUCGGAUGCAGAGGCGGCAGCCUUCGGUGACGCGAUAGCGCCAACGUUCUCAACUAUGACACGCAAAACGCGUGCUCCGUUGAAUGAAGUUUAUCAUG | -3.7
GGAUCUUCUCGAUGGAACAAAAAGGACAAAUCUGCCACAAAGCUUGAGAGCAUCUUCCGAUGCAGAGGCGGCAGCCUUCGGUGGCGGGAUAGCGCCAACGUUCUCAAAUAUGAUACGCAAAACGCGUGCUCCGUUAAAUGGAGUUUAUCAUG | ≤ -4.2
GGAUCUUCUCGAUUUAACAAAAAUGACAAAUCUGCCACAAAGCUUGAGAGCAUCAUCGGAUGCAGAGGCCGCAGCCUUCGGUGGCGCGAUAGCACCAACGUUCUCAACUAUGACAGGCAAAACGCGUGCUCCGUUGAAUGGAGUUUAUCAUG | ≤ -4.2
GGAUCUUCUCGAUGUAACAAAAAAGACAAAUCUGCCACAAAGCUUGAGAGCAUCUUCGGAUGCAGAGGCGGCAGCCUUCGGUGGCGCGAUAGCACCAACGUUCUCCACUAUGACACGCAAAACGCGUGCUCCGUUAAAUGGAGUUUAUCAUG | -3.64
GGAUCUUCUCGAUGUAACAAAAAAGACAAAUCUGCCACAAAGCUUGAGAGCAUCAUCGGAUGCAGAGGCGGCAGCCUUCGGUGGCGCGAUAUCGCCAACGUUCUCAACUAUGACACGCAAAACGCGUGCUCCGUUGAAUGGAGUUUAUCAUG | -2.92
GGAUCUUCUCGAUGCAAUAAAAAAGACAAAUCUGCCACUAAGCUUGAGCGCAUCUUCGGAUGCAGAGGCGGCAGCCUUCCGUGGCGCGAUAGCGCCAACGUUCUCAACUCUGACACGCAAAACGCGUGCUCCGUUGAAUGGAGUUUAUCAUG | ≤ -4.2
GGAUCUUCUCGAUGUAACAAAAAAGACAAAUCUGCCACAAAGCUUGAGAGCAUCUUCGGAUGCAGAGGCGGCAGCCUUCGGUGGCGCUAUAGCGCCAACGUUCUCAACUAUGACACGCAAAACGCGUGCUCCGUUGAAUAGAGUUUAUCAUG | ≤ -4.2
GGAUCUUCUCGAUGUAACAAAAAAGACAAAUCUGCCACAAAGCUUGAGAGCAUCUUCGGAGGCAGAGGCGGCAGCCUUCGGUGGCGCGAUAGCGCCAACGUUCUCAACUAUGACACGCAAAACGCGUGCUCCGUUGAAUGGAGUUUAUCAUG | -3.62
GGAUCUUCUCGAUGUAACAAAAAAGACAAAUCUGCCACAAAGCUUGAGAGCAUCUUCGGAAGCAGAGGCGGCAGCCUUCGGUGGCGCGAUAGCGCCAACGUUCUCAACUAUGACACGCAAAACGCGUGCUCCGUUGAAUGGAGUUUAUCAUG | -3.55
GGAUCUUCUCGAUGGAACAAAAAAGACAAAUCUGCCACAAAGCUUGAGAGCAUUUUCUGAUGCAGAGGCGGCAGCCUUCGGUGGCGGGAUAGCGCCAACGUUCUUAACUAUGACACGCAAAACGCGUGCUCCGUUGAAUGGAAUUUAUCAUG | ≤ -4.2
GGAUCUUCUCGAUGUAACAAAAAAGACAAAUCUGCCACAAAGCUUGAGAGCAUCUUCGGAUGCAGAGGCGGCAGCCUUCGGUGGCGCGAUAGCGCCAACGUUCUCAACUAUGACACGCAAAACGCGUGCUCCGUUGAAUGAAGUUUAUCAUG | -1.87
GGAUCUUCUCGAUUUAACAAAACAGACAAAUCUGCCACAAAGCUUGAGAGCAUCUUCGGAUGCAGAGGCGGCAGCCUUCGGUGGCGCGAUAGCGCCAACGCACUCAACUAUGACACGCAAAACGCGUGCUCCGUUGAAUGGAGUUUAUCAGG | ≤ -4.2
GGAUCUUCUCGAUUUAACAAAAUAGACAAAUCUGCCACAAAGCUUGAGAGCAUCUCCGGAUGCAGAGGCGGCAGCCUUCGGUGGCGUGAGAGCGCCAACGUUCUCAACUAUGACACGCAAAACGCGUGCUCCGUUGAAUGGAGUUUAUCAUG | ≤ -4.2
GGAUCUUCUCGAUGUAACAAAAAAGACAAAUCUGCCACAAAGCUUGAGAGCAUCUUCGGAUGCAGAGGCGGCAGCCUUCGGUAGCGCGAUAGCGCCAACGUUCUCAACUAUGACACUCAAAACGCGGGCUCCGUUGAAUGGAGUUUAUCAUG | ≤ -4.2
GGAUCUUCUCGAUGUAACAAAAAAGACAAAUCUGCCACAAAGCUUGAGAGCAUCUUCGGAUGCAGAGGCGGCAGCCUUCGGUCGCGCGAUAGCGCCAACGUUCUCAACUAUGACACUCAAAACGCGUGCUCCGUUGAAUGGAGUUUAUCAUG | -2.76
GGAUCUUCUCGAUUUAACGAAAAAGACAAAUCUGCCACAAAGCUUGAGAGCAUCUUCGGAUGCAGAGGCGGCAGCCUUCGGUGGCGCGAUAGCACCAACGUUCUCGACUAUGACACGCAAAACGCGUGCUGCGUUGAAUGGAGUUUAUCAUG | ≤ -4.2
